The text below walks through data of the supplement of paper PMC9170038.

The subject of this data set is MS2 coat protein. Kind of data set: apparent KD of MS2 coat protein; designed switch direction (-1 OFF switch, 1 ON switch): -1; higher = weaker reporter binding. In outline:
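Each step of the titration lasted 0.8–1.5 h at the lowest concentration and 10–20 min at the highest. The protein, SNAP-549-labelled MS2 coat protein, went from 0.7 or 1.5 nM doubling to 3 µM over RNA switches transcribed on Illumina chips by stalled E. coli RNA polymerase. Normalised cluster fluorescence was curve-fitted, and the per-design median over clusters is given as apparent KD.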

The mark [1] stands for this setting: Eterna round: R95, input ligand: FMN 200 uM.
Setting [2] is: Eterna round: R95, input ligand: microRNA oligo, concentration not stated.
Setting [3] is: Eterna round: R95, input ligand: none.
Setting [4] is: input ligand: microRNA oligo, concentration not stated.

For “AGUAGAUCUACGCUUGCGUGGAUCUGCUAGGCAGGUGUAACAUGAGGAUCACCCAUGUCCUCAUUUGUUCGUCUUAU [JL turnoff v2 99.18] (puzzle: Sensor v3, turn-off variant 2)”, the “apparent KD of MS2 coat protein” value was determined as 85.4 nM under setting [1], 313 nM under setting [2] and 28.3 nM under setting [3].
Take “AGUAGGUCUACCUUGGUGGAUCUGCAUUUAGGCAGGUGUACAUGAGGAUCACCCAUGUCCUCAUUUGCUCGUCUUAU [JL turnoff v2 99.29] (puzzle: Sensor v3, turn-off variant 2)”: the “apparent KD of MS2 coat protein” value under setting [1] is 807 nM, the “apparent KD of MS2 coat protein” value under setting [2] turned out to be 488 nM and the “apparent KD of MS2 coat protein” value under setting [3] worked out at 952 nM.
For “AGUAGUUACGUAGGAUAUGAGGAUCACCCAUAGAAGGAUAUCGAAAGAGAAGGUCUGAGGAUUACCCAGAAGGACGUGACUACA [pwkr exNG2 2xF5 2xFMN.9] (Eterna round: R96, puzzle: Exclusion NG 2)”, the “apparent KD of MS2 coat protein” value by setting is: (input ligand: FMN 200 uM) 334 nM; under setting [4], 113 nM; (input ligand: none) 138 nM.
For “AGUAUAAUGUACGUGCACCACUUACAUGAGGAUCACCCAUGUUAGGAUAUCGAGCCUUUCUGGCUCGAGAAGGGACUCUUCGGG [Eternabot solution 18] (Eterna round: R96, puzzle: Exclusion NG 3)”, the “apparent KD of MS2 coat protein” value stood at 33.2 nM (input ligand: FMN 200 uM), 22.9 nM under setting [4] and 29.1 nM (input ligand: none).
In the case of “AGUAUCUGAGGAUAUUGAGUUAUCUACAUGAGGAUCACCCAUGUUGUAUGUGUAGAAGCACGAGAAGGCAGAUACA [Eternabot (L2) Solution 1] (Eterna round: R97, puzzle: Exclusion 5)”, the “apparent KD of MS2 coat protein” value stood at 395 nM (input ligand: FMN 200 uM) and 102 nM (input ligand: none).
Consider “AGUCAGGCGGUAGGAUAUCCAAACCGAGUGACCCUUUCAUAACAUGAGGAUCACCCAUGUCGGUGGGAGAAGGGCCGUACGGCA [Mat - Exclusion NG 2 - Mod of JL - D65] (Eterna round: R96, puzzle: Exclusion NG 2)”, for which the “apparent KD of MS2 coat protein” value is 410 nM (input ligand: FMN 200 uM), 173 nM under setting [4] and 159 nM (input ligand: none).
For “AGUCAGGCGGUAGGAUAUCCAUAUCGAGUGACCCUUUCAUAACAUGAGGAUCACCCAUGUCGGUGGGAGAAGGGCCGUAAGGCA [Mat - Exclusion NG 2 - Mod of JL - D69] (Eterna round: R96, puzzle: Exclusion NG 2)” the same measures were 53.6 nM, 30.5 nM and 41.1 nM.
“AGUCCAUAUGUUAGGAUAUGCAACUAGCCAUUGUAGCAGAAGGAACAUGAGGAUCACCCAUGUACAAAGACCCG [Biinvees] (puzzle: Brourd's mod of Exclusion 4)”: the “apparent KD of MS2 coat protein” value reads like this: under setting [1], 33.6 nM; under setting [2], 23.6 nM; under setting [3], 18.2 nM.
Turning to “AGUCCUGAAGUUAGGAUAUGAAGUAUCACUGCACUUCAGAAGGGACUUGAGGAUCACCCAAGUAGCCGUGAGGG [salish99_bmod_ex4_r4_002] (Eterna round: R97, puzzle: Brourd's mod of Exclusion 4)”, the “apparent KD of MS2 coat protein” value reads like this: (input ligand: FMN 200 uM) 128 nM; (input ligand: none) 70.6 nM.
Turning to “AGUCGGUCAGGAUAUGCAAUCGUGGACAUGAGGAUCACCCAUGUAACGUGGGCCUGGUUUGUAGAAGGGACGUGCA [EX5 #88] (Eterna round: R97, puzzle: Exclusion 5)”, the “apparent KD of MS2 coat protein” value (input ligand: FMN 200 uM) amounted to 63.2 nM and the “apparent KD of MS2 coat protein” value (input ligand: none) turned out to be 55.2 nM.
For the sequence “AGUCUGCGAGGAUAUACAUGAGGAUCACCCAUGUGCGAGAUACUAGUGAGGUCGAUUGGUAGAAGGCGCGGACG [Mat - Exclusion 3 - Mod of JL D85] (puzzle: Exclusion 3)”, the “apparent KD of MS2 coat protein” value was found to be 86.4 nM under setting [1], 93.1 nM under setting [2] and 67 nM under setting [3].
With “AGUGUGGGAGGAUAUACAUGAGGAUCACCCAUGUGAGUUGGCUCACAUGCUACGCUUCGUAGAAGGCCCAAAGA [Reragebion] (Eterna round: R96, puzzle: Exclusion 3)”, the “apparent KD of MS2 coat protein” value turned out to be 554 nM (input ligand: FMN 200 uM), 86.2 nM under setting [4] and 91.3 nM (input ligand: none).
Regarding “AGUUGGCGAGGAUAUACAUGAGGAUCACCCAUGUGAAAUAGAAUAGUGAGGAAGAAAAGUAGAAGGCGCUGACA [Mat - Exclusion 3 - Mod of Salish D41] (puzzle: Exclusion 3)”, the “apparent KD of MS2 coat protein” value under setting [2] was found to be 49.7 nM.
Turning to “AGUUGGCGAGGAUAUACAUGAGGAUCACCCAUGUGAAGAAGAAUAGUGAGGAAGAAAAGUAGAAGGCGCUGACA [Mat - Exclusion 3 - Mod of Salish D37] (Eterna round: R96, puzzle: Exclusion 3)”, the “apparent KD of MS2 coat protein” value is 412 nM (input ligand: FMN 200 uM), 33.6 nM under setting [4] and 48.5 nM (input ligand: none).
Turning to “AGUUGGCGAGGAUAUACAUGAGGAUCACCCAUGUGAAGAAGAAUAGUGAGGAAGAAAAGUAGAAGGCGCUGACA [Mat - Exclusion 3 - Mod of Salish D37] (puzzle: Exclusion 3)”, under setting [2], the “apparent KD of MS2 coat protein” value was found to be 36.6 nM.
In the case of “AGUUGGCGAGGAUAUACAUGAGGAUCACCCAUGUGAGAGAAAAAAGUGAGGAAGAAAAGUAGAAGGCGCUGACU [salish99_ex3_r3_039] (puzzle: Exclusion 3)”, the “apparent KD of MS2 coat protein” value was 313 nM under setting [1], 46.3 nM under setting [2] and 60.4 nM under setting [3].
Regarding “AUAAAACGAGGAUAUGCUGGGCUUCUGUGAUGCAUAUGCUCACAUGAGGAUCACCCAUGUAGAAGGUGUAAAAU [Laaceve] (Eterna round: R96, puzzle: Exclusion 2)”, the “apparent KD of MS2 coat protein” value reads like this: (input ligand: FMN 200 uM) 389 nM; under setting [4], 221 nM; (input ligand: none) 331 nM.
As for “AUAAAACGAGGAUAUGCUGGGCUUCUGUGAUGCAUAUGCUCACAUGAGGAUCACCCAUGUAGAAGGUGUAAAAU [Laaceve] (puzzle: Exclusion 2)”, the “apparent KD of MS2 coat protein” value under setting [2] was 220 nM.
“AUAAAAUGCCAAGGAUAUCGGAAAGGAAGUGUACGAGAAGGUGGAGAUCCUAUACAUGAGGAUCACCCAUGUAUCAAGCUUGGG [PowerStrip EXNG 1.10] (Eterna round: R96, puzzle: Exclusion NG 1)”: the “apparent KD of MS2 coat protein” value is 692 nM (input ligand: FMN 200 uM), 510 nM under setting [4] and 760 nM (input ligand: none).
For “AUAAAUCAUGUAGGAUAUGCGUGGCGAAGCUAUGCAGAAGGACAUGAGGAUCACCCAUGUCUUUCCGUCUGCGUACAGACGGAA [Mat - Exclusion NG 1 - Mod of JL - D41] (Eterna round: R96, puzzle: Exclusion NG 1)” the same measures were 289 nM, 23.6 nM and 24.5 nM.
On to “AUAAUAAAGGAGGAUAUCGUAACGGAAACGUUACGAGAAGGUCUAACAUGAGGAUCACCCAUGUUCCUCAAAUA [Mat - Exclusion 6 - Eli Mod - D50] (puzzle: Exclusion 6)”, for which the “apparent KD of MS2 coat protein” value came out at 47.8 nM under setting [1], 35.4 nM under setting [2] and 47 nM under setting [3].
As to “AUAAUGUAAGGAUAUCAGUCGACUAGCCUCGGCUAGUCGACUGAGAAGGUACAUGAGGAUCACCCAUGUGUUUC [E4/12-A3] (Eterna round: R97, puzzle: Exclusion 4)”, the “apparent KD of MS2 coat protein” value worked out at 244 nM (input ligand: FMN 200 uM) and 35.6 nM (input ligand: none).
